Data: patent US20070077239

Target: bovine serum albumin, P02769
Sequence (P02769 25-607): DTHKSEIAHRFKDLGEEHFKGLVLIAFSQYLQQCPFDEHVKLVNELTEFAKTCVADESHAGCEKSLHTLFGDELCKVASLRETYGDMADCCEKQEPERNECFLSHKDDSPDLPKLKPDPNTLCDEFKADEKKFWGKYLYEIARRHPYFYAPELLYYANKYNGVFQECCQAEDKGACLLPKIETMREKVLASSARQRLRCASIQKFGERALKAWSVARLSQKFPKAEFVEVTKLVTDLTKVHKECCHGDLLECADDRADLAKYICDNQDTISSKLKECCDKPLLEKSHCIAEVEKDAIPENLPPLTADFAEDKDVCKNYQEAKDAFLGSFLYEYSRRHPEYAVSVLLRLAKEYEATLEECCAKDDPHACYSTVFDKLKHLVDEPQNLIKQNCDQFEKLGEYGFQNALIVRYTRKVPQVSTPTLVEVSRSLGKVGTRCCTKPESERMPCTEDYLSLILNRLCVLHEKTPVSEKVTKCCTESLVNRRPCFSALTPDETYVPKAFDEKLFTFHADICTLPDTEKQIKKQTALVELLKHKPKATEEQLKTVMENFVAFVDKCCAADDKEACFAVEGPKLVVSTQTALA

B1: MPO purified from human PMNs (protein)
chain 1: not shown
chain 2: VNCETSCVQQPPCFPLKIPPNDPRIKNQADCIPFFRSCPACPGSNITIRNQINALTSFVDASMVYGSEEPLARNLRNMSNQLGLLAVNQRFQDNGRALLPFDNLHDDPCLLTNRSARIPCFLAGDTRSSEMPELTSMHTLLLREHNRLATELKSLNPRWDGERLYQEARKIVGAMVQIITYRDYLPLVLGPTAMRKYLPTYRSYNDSVDPRIANVFTNAFRYGHTLIQPFMFRLDNRYQPMEPNPRVPLSRVFFASWRVVLEGGIDPILRGLMATPAKLNRQNQIAVDEIRERLFEQVMRIGLDLPALNMQRSRDHGLPGYNAWRRFCGLPQPETVGQLGTVLRNLKLARKLMEQYGTPNNIDIWMGGVSEPLKRKGRVGPLLACIIGTQFRKLRDGDRFWWENEGVFSMQQRQALAQISLPRIICDNTGITTVSKNNIFMSNSYPRDFVNCSTLPALNLASWREAS
endocytosis of MPO in BLMVEC (confocal microscopy): in the presence of albumin, MPO staining was markedly co-localized with albumin-containing vesicles | transendothelial 125I-MPO permeability (BLMVEC on Transwell filters): increased more than 2-fold in the presence of albumin, as compared to γ-globulin
